Tests used:
[1] = biological target: Coatomer complex of HEK293T cells (Homo sapiens (Human)) (UniProt P53621)
[2] = biological target: Coatomer complex of HEK293T cells (Homo sapiens (Human)) (UniProt P53621); remark: listed apart in the source

B1: Wnt7a-HA (ligand)
chain: LGASIICNKIPGLAPRQRAICQSRPDAIIVIGEGSQMGLDECQFQFRNGRWNCSALGERTVFGKELKVGSREAAFTYAIIAAGVAHAITAACTQGNLSDCGCDKEKQGQYHRDEGWKWGGCSADIRYGIGFAKVFVDAREIKQNARTLMNLHNNEAGRKILEENMKLECKCHGVSGSCTTKTCWTTLPQFRELGYVLKDKYNEAVHVEPVRASRNKRPTFLKIKKPLSYRKPMDTDLVYIEKSPNYCEEDPVTGSVGTQGRACNKTAPQASGCDLMCCGRGYNTHQYARVWQCNCKFHWCCYVKCNTCSERTEMYTCKYPYDVPDYA
[1]
  Selection pattern Distribution (%), EV Fraction: 83.4%
[2]
  Wnt7a expression per ug of total protein, EV Fraction (tangential flow filtration) (per ug of total protein): 0.13

From US20240238441A1
